B1: Serine/threonine-protein kinase D1 (Mus musculus), Q62101 (parent)
chain: MSVPPLLRPPSPLLPAAAAVAAAAAALVPGSGPAPFPAPGAAPAGGISFHLQIGLSREPVLLLQDSSGDYSLAHVREMACSIVDQKFPECGFYGLYDKILLFRHDPASDNILQLVKIASDIQEGDLIEVVLSASATFEDFQIRPHALFVHSYRAPAFCDHCGEMLWGLVRQGLKCEGCGLNYHKRCAFKIPNNCSGVRRRRLSNVSLTGLGTVRTASAEFSTSVPDEPLLSPVSPGFEQKSPSESFIGREKRSNSQSYIGRPIQLDKLLMSKVKVPHTFVIHSYTRPTVCQFCKKLLKGLFRQGLQCKDCRFNCHKRCAPKVPNNCLGEVTINGELLSPGAESDVVMEEGSDDNDSERNSGLMDDMDEAMVQDTEMALAEGQSGGAEMQDPDADQEDSNRTISPSTSNNIPLMRVVQSVKHTKRRSSTVMKEGWMVHYTSKDTLRKRHYWRLDSKCITLFQNDTGSRYYKEIPLSEILCLEPAKPSALTPVGATPHCFEITTANVVYYVGENVVNPSSSPPNNSVLPSGIGPDVARMWEVAIQHALMPVIPKGSSVGSGSNSHKDISVSISVSNCQIQENVDISTVYQIFPDEVLGSGQFGIVYGGKHRKTGRDVAIKIIDKLRFPTKQESQLRNEVAILQNLHHPGVVNLECMFETPERVFVVMEKLHGDMLEMILSSEKGRLPEHITKFLITQILVALRHLHFKNIVHCDLKPENVLLASADPFPQVKLCDFGFARIIGEKSFRRSVVGTPAYLAPEVLRNKGYNRSLDMWSVGVIIYVSLSGTFPFNEDEDIHDQIQNAAFMYPPNPWKEISHEAIDLINNLLQVKMRKRYSVDKTLSHPWLQDYQTWLDLRELECRIGERYITHESDDSRWEQYAGEQGLQYPAHLISLSASHSDSPEAEEREMKALSERVSIL

The variants in the first experiment derive from B1. The note with it: with itb3_human ITGB3, P05106.
itb3_human ITGB3, P05106, sequence (P05106 whole entry): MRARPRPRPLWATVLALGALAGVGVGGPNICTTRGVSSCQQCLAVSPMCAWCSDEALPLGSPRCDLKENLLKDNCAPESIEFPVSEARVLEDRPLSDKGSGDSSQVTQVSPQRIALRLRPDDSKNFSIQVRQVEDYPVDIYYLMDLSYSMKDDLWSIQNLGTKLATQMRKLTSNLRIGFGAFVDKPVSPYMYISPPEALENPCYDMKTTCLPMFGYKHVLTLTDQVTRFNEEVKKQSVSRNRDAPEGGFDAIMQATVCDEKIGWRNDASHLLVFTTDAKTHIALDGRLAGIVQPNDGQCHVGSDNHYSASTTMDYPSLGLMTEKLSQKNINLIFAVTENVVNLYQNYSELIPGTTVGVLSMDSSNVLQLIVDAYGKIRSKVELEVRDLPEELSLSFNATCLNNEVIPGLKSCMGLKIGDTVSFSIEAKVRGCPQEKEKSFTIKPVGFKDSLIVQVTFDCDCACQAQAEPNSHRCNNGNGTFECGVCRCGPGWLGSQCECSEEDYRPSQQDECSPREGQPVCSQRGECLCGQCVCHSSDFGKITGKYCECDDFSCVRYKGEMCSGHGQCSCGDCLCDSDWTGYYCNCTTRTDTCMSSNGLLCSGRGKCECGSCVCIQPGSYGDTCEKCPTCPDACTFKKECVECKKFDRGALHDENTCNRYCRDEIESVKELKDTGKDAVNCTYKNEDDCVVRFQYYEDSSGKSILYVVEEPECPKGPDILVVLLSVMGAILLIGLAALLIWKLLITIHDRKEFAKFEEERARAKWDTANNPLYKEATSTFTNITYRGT
For the variant S916A, the “effect of a mutation on the interaction” value was “decreasing interaction”.

In the next experiment the parent is B1. The note with it: with itb3_human ITGB3, P05106. The source holds these as a separate data set.
Regarding S916A, the “effect of a mutation on the interaction” value was “disrupting interaction”.

The values above are taken from IntAct's records for PubMed 17485491.
